Data: US20110130449A1 (ISIS INNOVATION, published 2011)

Columns and labels:
[1] = molecular target: TAP-tagged Jmjd6 fusion protein (human); assay: tandem affinity purification of TAP-tagged Jmjd6 from HEK293T cells, MS identification
[2] = molecular target: Jmjd6 active site mutant ASM1 (GFP fusion) (human, UniProt Q5R6G2 1-403); assay: GFP nanotrap pulldown, Western blot
[3] = molecular target: Jmjd6 with an N-terminal deletion of seven amino acids (GFP fusion) (human, UniProt Q5R6G2 8-403); assay: GFP nanotrap pulldown, Western blot

binding result [1]	binding result [2]	binding result [3]	Binder
binds	no binding	no binding	Splicing factor U2AF 65 kD subunit (other, also called U2 snRNP auxiliary factor 65 KDa subunit) SDFDEFERQLNENKQERDKENRHRKRSHSRSRSRDRKRRSRSRDRRNRDQRSASRDRRRRSKPLTRGAKEEHGGLIRSPRHEKKKKVRKYWDVPPPGFEHITPMQYKAMQAAGQIPATALLPTMTPDGLAVTPTPVPVVGSQMTRQARRLYVGNIPFGITEEAMMDFFNAQMRLGGLTQAPGNPVLAVQINQDKNFAFLEFRSVDETTQAMAFDGIIFQGQSLKIRRPHDYQPLPGMSENPSVYVPGVVSTVVPDSAHKLFIGGLPNYLNDDQVKELLTSFGPLKAFNLVKDSATGLSKGYAFCEYVDINVTDQAIAGLNGMQLGDKKLLVQRASVGAKNATLVSPPSTINQTPVTLQVPGLMSSQVQMGGHPTEVLCLMNMVLPEELLDDEEYEEIVEDVRDECSKYGLVKSIEIPRPVDGVEVPGCGKIFVEFTSVFDCQKAMQGLTGRKFANRVVVTKYCDPDSYHRRDFW
binds	–	–	cisplatin resistance-associated overexpressed protein (CROP) (other, also called CROP protein) MISAAQLLDELMGRDRNLAPDEKRSNVRWDHESVCKYYLCGFCPAELFTNTRSDLGPCEKIHDENLRKQYEKSSRFMKVGYERDFLRYLQSLLAEVERRIRRGHARLALSQNQQSSGAAGPTGKNEEKIQVLTDKIDVLLQQIEELGSEGKVEEAQGMMKLVEQLKEERELLRSTTSTIESFAAQEKQMEVCEVCGAFLIVGDAQSRVDDHLMGKQHMGYAKIKATVEELKEKLRKRTEEPDRDERLKKEKQEREEREKEREREREERERKRRREEEEREKERARDRERRKRSRSRSRHSSRTSDRRCSRSRDHKRSRSRERRRSRSRDRRRSRSHDRSERKHRSRSRDRRRSKSRDRKSYKHRSKSRDREQDRKSKEKEKRGSDDKKSSVKSGSREKQSEDTNTESKESDTKNEVNGTSEDIKSEGDTQSN
